Our source for the protein stability index values is the supplement of paper PMC10724198.

± gives the standard deviation of the averaged measurements.
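Further: PSI is a weighted mean of sequencing reads over stability bins, variants kept only with over 10 reads, mCherry proximal and sfGFP distal, peptide attached via GGGS linker.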

The subject of this data set is Saccharomyces cerevisiae. In words: protein stability index of tFT-peptide fusion (C-terminal peptide) (PSI (0-1 scale)); higher = more stable (slower turnover). The settings on record: genetic background: wild type; temperature: 30 C.
As to RARELGVPPPPP, the protein stability index stood at 0.579 ± 0.066.
For the sequence RARGGGAEPGRN, the protein stability index was determined as 0.685 ± 0.027.
Sequence RARGQPTKDIAS yielded a protein stability index of 0.643 ± 0.018.
Next, RARNRPKTEYHI: 0.6826 ± 0.0025; RASFLLPPPAPP: 0.6311 ± 0.0049.
To RAVFFLQAHCSL belongs 0.674 ± 0.0072.
Turning to RAWPLLPTCPPP, the protein stability index was 0.7 ± 0.019.
To RCFGPPSRLAYF belongs 0.683 ± 0.017.
In turn, RCGDGLSRLTPL showed a protein stability index of 0.71 ± 0.032.
To RCGGGGSVSFWW belongs 0.693 ± 0.049; to RCGLSGGRPPVL, 0.6475 ± 0.0016.
With RCGRVEKRIGRV, the protein stability index came to 0.756 ± 0.086.
As to RCIAAEFFRVHP, the protein stability index amounted to 0.685 ± 0.019.
Consider RCIASHRLSLRT, for which the protein stability index was found to be 0.682 ± 0.037.
RCTRAAGLAAPA: the protein stability index worked out at 0.691 ± 0.0088.
In the case of RCTWEATYNLRY, the protein stability index turned out to be 0.749 ± 0.092.
RCVSLDVPPTGA displayed a protein stability index of 0.688 ± 0.013.
The sequence RDALVNADKIGR came in with a protein stability index of 0.703 ± 0.061.
To RDAWLGMSQYTF belongs 0.7302 ± 0.0051.
Turning to RDCVVSCSCIHI, the protein stability index stood at 0.694 ± 0.057.
Next, RDGKRHSSQWRG: 0.659 ± 0.037; RDGLWCFSEFLG: 0.731 ± 0.048; RDGRAGGDIGAT: 0.618 ± 0.11.
Next, RDNNSNEMGQAI: 0.723 ± 0.016; RDPIGRPEMSKI: 0.67 ± 0.086.
As to RDPTPPNPPPSR, the protein stability index worked out at 0.763 ± 0.057.
Sequence RDTFLKMLDERN had a protein stability index of 0.732 ± 0.042.
For the sequence RDVVRGVSRGGR, the protein stability index came out at 0.714 ± 0.02.
REAPPYQSHVAS came in with a protein stability index of 0.676 ± 0.065.
As to REDAKLGYGKKK, the protein stability index is 0.637 ± 0.061.
Next, REGGVLGVVKWS: 0.668 ± 0.02.
As to REGPSPLDPSRF, the protein stability index came out at 0.684 ± 0.051.
To RELKSPRCRTHR belongs 0.653 ± 0.12; to RELLWFIFTGFC, 0.622 ± 0.042; to REREKITRKRNT, 0.69 ± 0.01.
For RERGVSVKLGGG, the protein stability index is 0.677 ± 0.026.
As for RESPYSRSRCLL, the protein stability index was determined as 0.733 ± 0.17.
Next, RETMFTRFRGSD: 0.627 ± 0.063.
Next, RFAFLPPPPLPP: 0.636 ± 0.011; RFCQSHTSVSSF: 0.652 ± 0.039; RFGGGAVWGLGG: 0.666 ± 0.02.
Sequence RFGPPPPPPSTL had a protein stability index of 0.71 ± 0.035.
In turn, RFGRGAVGGLGG showed a protein stability index of 0.668 ± 0.02.
Regarding RFGSGYLRRYTH, the protein stability index came out at 0.776 ± 0.011.
To RFIGVVTRLRRC belongs 0.643 ± 0.042; to RFKLEKIKHKKK, 0.755 ± 0.054.
For RFPRSSPPHRSL, the protein stability index amounted to 0.717 ± 0.023.
In the case of RFRSMTGVIVSE, the protein stability index came to 0.6772 ± 0.002.
Regarding RFSPRSLIFFPS, the protein stability index is 0.612 ± 0.03.
For RFTPLSFCTDRV, the protein stability index is 0.658 ± 0.025.
With RGARTGGGRDGS, the protein stability index amounted to 0.705 ± 0.025.
Regarding RGEGGRALGVGR, the protein stability index came out at 0.688 ± 0.015.
RGEGGRGRTVEG registered a protein stability index of 0.631 ± 0.077.
RGEVQPRRDPGA yielded a protein stability index of 0.662 ± 0.0095.
Consider RGFGSGTVGVQS, for which the protein stability index amounted to 0.616 ± 0.034.
Next, RGFMLGFVSRFS: 0.625 ± 0.039; RGFPPPPLLSSR: 0.74 ± 0.059; RGGGEWGKEDSQ: 0.705 ± 0.019.
Next, RGGGGRGWGSRG: 0.67 ± 0.027; RGGGGVLEVLLG: 0.5347 ± 0.0046.
To RGGGQVLGVRVG belongs 0.667 ± 0.089; to RGGGSWWCGGDQ, 0.76 ± 0.024.
Sequence RGGGVGRGLGGK displayed a protein stability index of 0.605 ± 0.066.
RGGLRRGSGREG gave a protein stability index of 0.684 ± 0.068.
To RGGPLSSGVVLV belongs 0.714 ± 0.049.
For RGGRGAVRWLRG, the protein stability index was 0.66791 ± 7.1e-07.
RGGVAGQPDAGR returned a protein stability index of 0.666 ± 0.014.
RGKIKKTRKDNK displayed a protein stability index of 0.598 ± 0.021.
To RGKTGLTRYIGV belongs 0.709 ± 0.074; to RGLGGGAECGRW, 0.785 ± 0.12; to RGLGVFGVVSPA, 0.7 ± 0.057.
The sequence RGLRIFMSRAWH registered a protein stability index of 0.75 ± 0.043.
Turning to RGLVLWVVSGRG, the protein stability index came out at 0.6155 ± 0.0045.
The sequence RGLVSPPPPLPS gave a protein stability index of 0.681 ± 0.024.
On to RGLYPLKVDCQW, for which the protein stability index was found to be 0.753 ± 0.036.
The sequence RGPRGGFHFFRA showed a protein stability index of 0.6657 ± 0.003.
To RGREGSSVAVMV belongs 0.646 ± 0.04; to RGRFGYTSSTLA, 0.686 ± 0.041; to RGRGRVFVFGNW, 0.726 ± 0.033.
For RGRLRFGNTTGI, the protein stability index was 0.691 ± 0.035.
As for RGRRPRPGGTGT, the protein stability index stood at 0.641 ± 0.016.
To RGRRRGGQQIAE belongs 0.666 ± 0.007; to RGRSGASSGWRG, 0.659 ± 0.044; to RGSQLFWSRGYL, 0.707 ± 0.035.
In the case of RGSSPRAVTVWM, the protein stability index was found to be 0.804 ± 0.075.
The sequence RGTDSRERIKRR had a protein stability index of 0.721 ± 0.06.
Take RGTWSLFYAFLD: the protein stability index is 0.578 ± 0.035.
Next, RGVGAGGLEGIG: 0.535 ± 0.011; RGVGCLIITHSL: 0.608 ± 0.073.
In the case of RGVGGVLEVLLG, the protein stability index was 0.5256 ± 0.0032.
Regarding RGVGWGGLEGIG, the protein stability index is 0.5235 ± 0.0014.
As for RGVGWVLEVLLG, the protein stability index is 0.518 ± 0.0087.
Next, RGVPPPCPLLAA: 0.599 ± 0.077; RGWAGGRQGCGG: 0.746 ± 0.055.
RGWVEWGVRASE gave a protein stability index of 0.749 ± 0.06.
Consider RGYEGSEVQVGV, for which the protein stability index is 0.677 ± 0.043.
Sequence RGYGRGWRGVGA gave a protein stability index of 0.747 ± 0.18.
With RGYLAKELGVKS, the protein stability index was found to be 0.652 ± 0.02.
For RHAFGSSHVRFF, the protein stability index came out at 0.679 ± 0.024.
To RHLVSPSTRAIS belongs 0.77 ± 0.15; to RHMLSDFIDACS, 0.72 ± 0.12; to RHPPPRSSPPDL, 0.639 ± 0.095.
RHPVFSSTVSYI yielded a protein stability index of 0.738 ± 0.03.
RHSREPRASMTR showed a protein stability index of 0.641 ± 0.072.
Sequence RHTFMCQRRVGL gave a protein stability index of 0.78 ± 0.084.
RHVSHASRLTPG came in with a protein stability index of 0.602 ± 0.11.
As for RHYGVTSLISLQ, the protein stability index worked out at 0.674 ± 0.01.
Consider RIAPSLPPSSFL, for which the protein stability index came out at 0.688 ± 0.0095.
For RIATRCEGPGHK, the protein stability index amounted to 0.663 ± 0.015.
The sequence RIDLFCVRSSLV gave a protein stability index of 0.6573 ± 0.0054.
In the case of RIGEHGWLTGYI, the protein stability index was found to be 0.736 ± 0.012.
Regarding RILVYRKENRKN, the protein stability index is 0.678 ± 0.052.
The sequence RINKKRETNQGK came in with a protein stability index of 0.685 ± 0.05.
RIQMSGHTNLVG had a protein stability index of 0.686 ± 0.024.
RISPRVSARLCI showed a protein stability index of 0.616 ± 0.007.
RITYIANNVMLF registered a protein stability index of 0.652 ± 0.028.
